The results in this text go back to patent US20030088075A1 (Kyowa Kirin, published 2003).

The chains are these.
B1: anti-human VEGF receptor Flt-1 mouse monoclonal antibody KM1750 (antibody, mouse IgG2b, V domains shown)
VH: QAFLQQSGAELVRPGASVKMSCKASGYTFINYNMHWVKQTPRQGLEWIGAIFPGNGFTSYNQKFKGKATLTVDKSSSTVYMQLRSLTSEDSAVYFCARDGDYYFDYWGQGTTLTVSS
VL: QIVLTQSPAIMSASLGEEITLTCSASSSVSYMHWYQQKSGTSPKLLIYRTSNLASGVPFRFSGSGSGTFYSLTISSVEAEDAADYYCHQWSMYTFGGGTKLEIK
notes: mouse IgG2b; hybridoma FERM BP-5700; Used labeled with biotin on HUVEC; also called biotinated KM1750
B2: anti-human VEGF receptor Flt-1 mouse monoclonal antibody KM1732 (antibody, mouse IgG1, V domains shown)
VH: QGQMQQSGAELVKPGASVKLSCKPSGFTFSSNYISWLKQKPGQSLEWIAWIYAGTGDASYNQKFTAKAHVTVDTSSSTAYMQLSSLTTEDSAIYYCARHGGDGYWFAYWGQGTLVTVSA
VL: QLVLTQSPAIMSASQGEKVTMTCSASSSVSYMHWYQQKSGTSPKRWIYDTSKLPSGVPARFSGSGSGTSYSLTISSMEAEDAATYYCQQWSSNPPTFGAGTKLELK
notes: mouse IgG1; hybridoma FERM BP-5698
B3: anti-human VEGF receptor Flt-1 human chimeric antibody KM2550 (antibody, V domains shown)
VH: B1 VH
VL: B1 VL
notes: V regions of KM1750 joined to the human antibody C regions of vector pKANTEX93; IgG type; also called p42550 [sic]
B4: anti-human VEGF receptor Flt-1 human chimeric antibody KM2532 (antibody, V domains shown)
VH: B2 VH
VL: B2 VL
notes: V regions of KM1732 joined to the human antibody C regions of vector pKANTEX93 (WO 97/10354); IgG type of about 150 kDa; Expressed in YB2/0 cells; also called p42532 [sic]
B5: anti-human VEGF receptor Flt-1 human CDR-grafted antibody KM8550 (antibody, V domains shown)
VH: QVQLVQSGAEVKKPGASVKVSCKASGYTFINYNMHWVRQAPGQGLEWMGAIFPGNGFTSYNQKFKGRVTITVDKSTSTAYMELSSLRSEDTAVYYCARDGDYYFDYWGQGTLVTVSS
VL: DIQMTQSPSSLSASVGDRVTITCSASSSVSYMHWYQQKPGKAPKLLIYRTSNLASGVPSRFSGSGSGTDFTLTISSLQPEDFATYYCHQWSMYTFGQGTKVEIK
notes: also called pKANTEX1750HV0LV0(I)
B6: anti-human VEGF receptor Flt-1 human CDR-grafted antibody KM8551 (antibody, V domains shown)
VH: B5 VH
VL: DIVMTQSPDSLAVSLGERATINCSASSSVSYMHWYQQKPGQPPKLLIYRTSNLASGVPDRFSGSGSGTDFTLTISSLQAEDVAVYYCHQWSMYTFGQGTKVEIK
notes: also called pKANTEX1750HV0LV0(IV)
B7: anti-human VEGF receptor Flt-1 human CDR-grafted antibody KM8554 (antibody, V domains shown)
VH: B5 VH
VL: B5 VL with D17E, R18E, D69F, F70Y
notes: also called pKANTEX1750HV0LV4
B8: anti-human VEGF receptor Flt-1 human CDR-grafted antibody KM8555 (antibody, V domains shown)
VH: B5 VH with E82Q, S84R, Y95F
VL: B5 VL with D17E, R18E, D69F, F70Y
notes: also called pKANTEX1750HV3LV4
B9: anti-human VEGF receptor Flt-1 human CDR-grafted antibody KM8553 (antibody, V domains shown)
VH: B5 VH with E82Q, S84R, Y95F
VL: B6 VL
notes: also called pKANTEX1750HV3LV0(IV)
B10: anti-human VEGF receptor Flt-1 human CDR-grafted antibody KM8552 (antibody, V domains shown)
VH: B5 VH with E82Q, S84R, Y95F
VL: B5 VL
notes: also called pKANTEX1750HV3LV0(I)

One may read the IC50 as the concentration that gives 50% inhibition. Lower therefore signals greater potency.

Changes are numbered by the printed parent chain.

The target of one test is T1, soluble human VEGF receptor Flt-1 7N (human, UniProt P17948 27-750).
T1 construct: range 1-750; Secreted from baculovirus-infected High Five insect cells and purified on heparin-Sepharose; also called Flt 7N; soluble human Flt-1 7N
T1 sequence (P17948 27-750 limits assumed, form in doubt): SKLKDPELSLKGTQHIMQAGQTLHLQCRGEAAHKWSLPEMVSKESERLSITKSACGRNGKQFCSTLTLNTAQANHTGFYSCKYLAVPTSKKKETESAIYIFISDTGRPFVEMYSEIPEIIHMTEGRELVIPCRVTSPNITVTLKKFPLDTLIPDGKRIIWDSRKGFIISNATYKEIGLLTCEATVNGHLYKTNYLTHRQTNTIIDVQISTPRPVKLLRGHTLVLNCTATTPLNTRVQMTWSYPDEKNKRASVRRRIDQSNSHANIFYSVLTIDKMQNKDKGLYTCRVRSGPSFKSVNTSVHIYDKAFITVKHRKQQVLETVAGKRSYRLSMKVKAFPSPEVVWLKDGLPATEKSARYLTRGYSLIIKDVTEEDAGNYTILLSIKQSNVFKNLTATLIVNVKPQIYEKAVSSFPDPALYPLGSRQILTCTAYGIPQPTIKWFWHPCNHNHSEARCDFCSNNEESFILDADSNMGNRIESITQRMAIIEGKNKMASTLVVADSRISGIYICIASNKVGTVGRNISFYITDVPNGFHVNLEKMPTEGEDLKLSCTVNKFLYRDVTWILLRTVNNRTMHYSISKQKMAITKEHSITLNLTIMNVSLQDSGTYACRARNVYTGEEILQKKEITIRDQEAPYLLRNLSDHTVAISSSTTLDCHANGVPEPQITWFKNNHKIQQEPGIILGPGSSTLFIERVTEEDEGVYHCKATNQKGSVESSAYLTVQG
Put plainly: hybridoma culture supernatant; inhibition of 125I-VEGF (3 ng/ml) binding to coated Flt-1 7N. As to the method: (§1) Methanol was dispensed in 100 μl portions into wells of a 96 well MultiScreen-IP Plate (manufactured by Millipore) to give hydrophilic nature to the PVDF membrane on the bottom of the plate. After washing with water, the soluble human VEGF receptor Flt-1 7N diluted with PBS to a concentration of 1.6 μg/ml was dispensed in 50 μl/well portions and then allowed to stand overnight at 4° C. for its adsorption. After washing, PBS containing 1% bovine serum albumin (BSA) is dispensed in 50 μl/well portions and the reaction was carried out at room temperature for 1 hour to block the remained active groups. After washing with PBS, each hybridoma culture supernatant or a purified monoclonal antibody diluted with 1% BSA-PBS containing 0.5 M NaCl (0.01 to 7.29 μg/ml) was dispensed in 50 μl/well portions and then 3 ng/ml of ¹²⁵I-labeled human VEGF (manufactured by Amersham) was dispensed in 50 μl/well portions, subsequently carrying out the reaction at room temperature for 1.5 hours. After washing with 0 05% Tween-PBS, the wells were dried at 50° C., and Microscinti-0 (manufactured by Packard) was dispensed in 30 μl/well portions to measure the radioactivity of the ¹²⁵I-labeled human VEGF linked to each well using Top Count (manufactured by Packard).
As for B1, the inhibition ratio is 66.3%.

With B2, the inhibition ratio was 83.1%.

The target in another test is T2, soluble human VEGF receptor KDR 7N (human, UniProt P35968 20-757).
T2 construct: range 20-757; Purity 70 to 80%; not shown: two amino acid residues derived from a linker
T2 sequence (P35968 20-757): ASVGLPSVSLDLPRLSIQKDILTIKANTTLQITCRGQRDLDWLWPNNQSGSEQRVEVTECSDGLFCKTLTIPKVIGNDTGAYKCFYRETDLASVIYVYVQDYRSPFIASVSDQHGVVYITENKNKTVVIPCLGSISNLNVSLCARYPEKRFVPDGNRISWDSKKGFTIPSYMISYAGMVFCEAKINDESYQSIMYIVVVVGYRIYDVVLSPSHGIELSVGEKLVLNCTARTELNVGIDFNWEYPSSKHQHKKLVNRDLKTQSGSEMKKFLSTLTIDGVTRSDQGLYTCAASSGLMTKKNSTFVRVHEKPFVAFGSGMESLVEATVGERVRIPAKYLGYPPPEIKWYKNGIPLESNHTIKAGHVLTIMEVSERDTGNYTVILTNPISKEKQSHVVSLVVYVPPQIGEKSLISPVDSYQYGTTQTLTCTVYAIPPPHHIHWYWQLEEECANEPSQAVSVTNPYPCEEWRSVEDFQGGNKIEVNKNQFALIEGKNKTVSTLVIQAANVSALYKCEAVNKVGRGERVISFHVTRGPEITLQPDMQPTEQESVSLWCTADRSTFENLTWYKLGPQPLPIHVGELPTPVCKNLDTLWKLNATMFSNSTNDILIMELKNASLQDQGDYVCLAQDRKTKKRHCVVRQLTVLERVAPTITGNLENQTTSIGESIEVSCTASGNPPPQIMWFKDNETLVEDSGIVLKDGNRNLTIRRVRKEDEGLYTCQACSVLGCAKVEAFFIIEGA
The test can be described thus: ELISA, antigen coated at 4 µg/ml. As to the method: First, the reactivity of anti-human VEGF receptor Fit-i mouse monoclonal antibodies KM1732 and KM1750 and anti-human VEGF receptor Flt-1 human chimeric antibodies KM2532 and KM2550 was compared using an immunoassay method. Each of Flt-1 7N, Flt-1 3N, Flt-1 2N, Flt-1 7N.K2 and KDR 7N diluted to 4 μg/ml with PBS was dispensed in 50 μl portions into wells of a 96 well plate for EIA (manufactured by Greiner) and allowed to stand overnight at 4° C. for its adsorption. After washing the plate with PBS, 100 μl of 1% BSA-PBS was added to each well, and the remaining active groups was blocked by carrying out the reaction at room temperature for 1 hour. After discarding 1% BSA-PBS, each of the purified anti-human VEGF receptor Flt-1 mouse monoclonal antibodies KM1732 and KM1750 or purified anti-human VEGF receptor Flt-1 human chimeric antibodies KM2532 and KM2550, having a concentration of from 0.1 μg/ml, was dispensed in 50 μl portions into the resulting wells to carry out the reaction at room temperature for 1 hour.
A general note: In an ELISA, binding on a coated surface is turned into a signal by an enzyme label.
For the molecule B1, the binding result is on record as “no binding (tested: 0.1 µg/ml antibody)”.

On to B3, for which the binding result was “no binding (tested: 0.1 µg/ml antibody)”.

On to B2, for which the binding result is reported as “no binding (tested: 0.1 µg/ml antibody)”.

As to B4, the binding result is on record as “no binding (tested: 0.1 µg/ml antibody)”.

The target in another test is T2, soluble human VEGF receptor KDR 7N. The test can be described thus: enzyme immunoassay, antigen coated at 10 µg/ml. The source says: Next, in order to examine binding specificity of anti-human VEGF receptor Flt-1 human CDR-grafted antibodies KM8550, KM8551, KM8552, KM8553, KM8554 and KM8555 and anti-human VEGF receptor Flt-1 human chimeric antibody KM2550, their reactivity for five soluble human VEGF receptor derivative proteins Flt-1 7N, Flt-1 3N, Flt-1 2N (WO 98/22616), Flt-1 7N.K2 [2(6-5) of Example 2] and KDR 7N [2(6-5) of Example 2] was examined using an enzyme immunoassay. Concentration of each soluble human VEGF receptor derivative protein to be adsorbed on a 96 well plate for EIA was fixed to 10 μg/ml (3-fold dilution), and the antibody concentration was fixed to 5 μg/ml.
In the case of B5, the binding result is “no binding (tested: 5 µg/ml antibody)”.

As for B6, the binding result is on record as “no binding (tested: 5 µg/ml antibody)”.

Consider B7, for which the binding result is reported as “no binding (tested: 5 µg/ml antibody)”.

Turning to B8, the binding result was “no binding (tested: 5 µg/ml antibody)”.

Turning to B9, the binding result is recorded as “no binding (tested: 5 µg/ml antibody)”.

B10: the binding result is on record as “no binding (tested: 5 µg/ml antibody)”.

In the next test the target is T3, human VEGF receptor Flt-1 expressed on cells (human, UniProt P17948 27-1338).
T3 construct: whole, on cells; also called NIH3T3-Flt-1; human VEGF receptor Flt-1 expression cells
T3 sequence (P17948 27-1338): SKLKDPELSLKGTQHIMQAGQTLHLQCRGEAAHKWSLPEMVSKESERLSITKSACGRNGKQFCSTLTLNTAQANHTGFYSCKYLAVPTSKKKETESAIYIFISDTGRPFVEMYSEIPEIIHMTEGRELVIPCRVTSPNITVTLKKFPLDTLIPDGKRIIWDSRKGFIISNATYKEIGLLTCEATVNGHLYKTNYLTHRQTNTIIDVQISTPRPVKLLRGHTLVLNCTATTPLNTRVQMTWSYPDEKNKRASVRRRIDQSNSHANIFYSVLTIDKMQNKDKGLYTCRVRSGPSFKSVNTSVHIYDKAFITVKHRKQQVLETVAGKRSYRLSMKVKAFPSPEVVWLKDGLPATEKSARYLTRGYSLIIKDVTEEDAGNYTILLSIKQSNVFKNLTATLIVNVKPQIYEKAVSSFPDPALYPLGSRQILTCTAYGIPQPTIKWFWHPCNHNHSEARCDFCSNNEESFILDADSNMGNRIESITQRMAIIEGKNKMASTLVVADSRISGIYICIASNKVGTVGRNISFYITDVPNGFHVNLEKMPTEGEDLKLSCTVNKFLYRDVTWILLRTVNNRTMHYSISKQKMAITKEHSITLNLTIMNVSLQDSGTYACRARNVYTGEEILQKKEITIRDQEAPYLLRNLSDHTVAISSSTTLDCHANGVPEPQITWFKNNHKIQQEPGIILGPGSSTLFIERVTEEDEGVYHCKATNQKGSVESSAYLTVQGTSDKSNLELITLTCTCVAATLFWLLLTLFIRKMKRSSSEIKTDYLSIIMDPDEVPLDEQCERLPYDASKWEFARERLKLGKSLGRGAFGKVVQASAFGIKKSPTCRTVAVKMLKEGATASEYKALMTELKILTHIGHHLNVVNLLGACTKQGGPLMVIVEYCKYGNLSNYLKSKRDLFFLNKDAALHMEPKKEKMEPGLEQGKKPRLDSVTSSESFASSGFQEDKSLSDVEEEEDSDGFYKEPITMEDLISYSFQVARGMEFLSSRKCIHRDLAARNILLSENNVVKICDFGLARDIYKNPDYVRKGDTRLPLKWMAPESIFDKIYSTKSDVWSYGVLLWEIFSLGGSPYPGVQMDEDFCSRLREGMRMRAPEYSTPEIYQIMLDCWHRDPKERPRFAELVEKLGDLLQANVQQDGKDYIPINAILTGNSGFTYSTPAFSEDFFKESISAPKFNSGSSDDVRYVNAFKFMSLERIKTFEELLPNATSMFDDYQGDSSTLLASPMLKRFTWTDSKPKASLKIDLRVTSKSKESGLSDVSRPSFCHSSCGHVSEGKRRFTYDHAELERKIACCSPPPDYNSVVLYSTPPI
The test can be described thus: purified antibody; inhibition of 125I-VEGF binding to NIH3T3-Flt-1 cells. How it is done:
PBS containing 1% bovine serum albumin (BSA) was dispensed in 100 μl portions into wells of a 96 well MultiScreen-HV Plate (manufactured by Millipore), the reaction was carried out at room temperature for 1 hour to block the active groups in the wells and then NIH3T3-Flt-1 cells suspended in 1% BSA-PBS containing 0.05% NaN₃ were dispensed in 5×10⁴ cells/well portions. After washing with 1% BSA-PBS, a purified monoclonal antibody (0.01 to 7.29 μg/ml) was dispensed in 50 μl/well portions and then 3 ng/ml of ¹²⁵I-labeled human VEGF (manufactured by Amersham) was dispensed in 50 μl/well portions and the reaction was carried out under cooling for 2 hours. After washing with PBS, the wells were dried at 50° C., and Microscinti-0 (manufactured by Packard) was dispensed in 30 μl/well portions to measure the radioactivity of the ¹²⁵I-labeled human VEGF linked to each well using Top Count (manufactured by Packard).
Molecule B1 had an IC50 of 0.041 µg/mL.

For B2, the IC50 amounted to 0.05 µg/mL.

The target in another test is T1, soluble human VEGF receptor Flt-1 7N. The test can be described thus: purified antibody; inhibition of 125I-VEGF binding to coated Flt-1 7N. How it is done: as §1
The molecule B1 had an IC50 of 2 µg/mL.

Regarding B2, the IC50 is 1.1 µg/mL.
